Data published in patent US20240209100A1.
Like-named read-outs stand apart in the source and are kept apart here.

Columns and labels:
Test in all cases: cell-based or functional assay
[1] = target: T1, IL-18 receptor (IL-18Rα/IL-18Rβ) overexpressed on HEK-Blue IL-18 cells (Homo sapiens (Human)) (UniProt Q13478)
T1 sequence 1: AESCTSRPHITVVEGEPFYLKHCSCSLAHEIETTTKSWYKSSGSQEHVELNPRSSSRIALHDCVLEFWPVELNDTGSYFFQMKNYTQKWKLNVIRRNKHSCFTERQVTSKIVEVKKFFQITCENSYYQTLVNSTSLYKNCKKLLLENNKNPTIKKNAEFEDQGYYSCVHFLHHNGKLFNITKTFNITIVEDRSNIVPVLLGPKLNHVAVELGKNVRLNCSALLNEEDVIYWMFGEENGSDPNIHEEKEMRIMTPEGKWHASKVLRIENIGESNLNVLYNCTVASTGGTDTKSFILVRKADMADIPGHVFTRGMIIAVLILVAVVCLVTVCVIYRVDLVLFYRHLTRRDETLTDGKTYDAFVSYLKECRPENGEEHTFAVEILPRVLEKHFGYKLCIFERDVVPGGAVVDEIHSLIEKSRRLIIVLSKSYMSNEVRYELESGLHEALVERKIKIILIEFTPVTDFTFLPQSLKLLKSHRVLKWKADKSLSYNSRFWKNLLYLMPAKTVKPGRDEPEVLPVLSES
T1 sequence 2: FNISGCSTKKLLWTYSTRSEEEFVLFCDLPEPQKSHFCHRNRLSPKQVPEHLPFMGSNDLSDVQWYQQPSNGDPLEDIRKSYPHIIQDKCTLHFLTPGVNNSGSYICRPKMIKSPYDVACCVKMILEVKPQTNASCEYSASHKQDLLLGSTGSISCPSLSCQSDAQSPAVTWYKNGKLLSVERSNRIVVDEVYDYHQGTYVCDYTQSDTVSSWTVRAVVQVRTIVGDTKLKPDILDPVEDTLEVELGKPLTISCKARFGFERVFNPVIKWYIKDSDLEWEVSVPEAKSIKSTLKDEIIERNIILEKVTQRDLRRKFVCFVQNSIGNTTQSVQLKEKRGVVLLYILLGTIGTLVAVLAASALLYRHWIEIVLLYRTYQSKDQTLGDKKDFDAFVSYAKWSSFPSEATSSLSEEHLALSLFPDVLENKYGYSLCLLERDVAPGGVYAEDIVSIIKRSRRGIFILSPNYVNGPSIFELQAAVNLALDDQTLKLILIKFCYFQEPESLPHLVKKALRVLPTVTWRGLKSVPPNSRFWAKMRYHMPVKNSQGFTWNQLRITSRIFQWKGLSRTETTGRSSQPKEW

[2] = target: T1, IL-18 receptor (IL-18Rα/IL-18Rβ) overexpressed on HEK-Blue IL-18 cells (Homo sapiens (Human)); remark: listed apart in the source
[3] = target: T1, IL-18 receptor (IL-18Rα/IL-18Rβ) overexpressed on HEK-Blue IL-18 cells (Homo sapiens (Human)); remark: listed apart in the source
[4] = target: T2, IL-18 receptor (IL-18Rα/IL-18Rβ) on human PBMCs (human) (UniProt Q13478)
T2 sequence 1: T1 sequence 1
T2 sequence 2: T1 sequence 2

[5] = target: T1, IL-18 receptor (IL-18Rα/IL-18Rβ) overexpressed on HEK-Blue IL-18 cells (Homo sapiens (Human)); remark: listed apart in the source
[6] = target: T1, IL-18 receptor (IL-18Rα/IL-18Rβ) overexpressed on HEK-Blue IL-18 cells (Homo sapiens (Human)); remark: listed apart in the source

Chain of Human IL-18 (Q14116 37-193 limits assumed): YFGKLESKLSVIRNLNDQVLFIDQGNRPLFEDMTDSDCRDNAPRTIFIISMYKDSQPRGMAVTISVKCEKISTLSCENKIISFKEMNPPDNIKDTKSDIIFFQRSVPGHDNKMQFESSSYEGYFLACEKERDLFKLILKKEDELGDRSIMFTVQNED

What does the source list for “Human IL-18 (from UniProt Q14116 37-193) (ligand)”?
HEK-Blue IL-18: Abs405 [1]: 3.1 Abs; HEK-Blue IL-18: Fold over background [1]: 13.6 fold; HEK-Blue IL-18: Abs405 [2]: 3.08 Abs; HEK-Blue IL-18: Fold over background [2]: 26 fold; HEK-Blue IL-18: Abs 405 (Ave of 2) [3]: 2.6 Abs; HEK-Blue IL-18: Abs405 (Emax), Average (hu IL-18) [3]: 2.72 Abs; HEK-Blue IL-18: EC50 (M), Average (hu IL-18) [3]: 7.14e-14 M; HEK-Blue IL-18: Emax (Abs at 630 nm), Human IL-18 (1 ng/ml) (Abs at 630 nm) [3]: 3.25; HEK-Blue IL-18: Fold over background [3]: 22 fold; PBMC IFNγ induction (24 h, with IL-12): EC50, Average [4]: 6.8; PBMC IFNγ induction (24 h, with IL-12): EC50, donor 1 [4]: 1.9; PBMC IFNγ induction (24 h, with IL-12): EC50, donor 2 [4]: 1.7; PBMC IFNγ induction (24 h, with IL-12): EC50, donor 3 [4]: 1.4; PBMC IFNγ induction (24 h, with IL-12): EC50, donor 4 [4]: 4.7; PBMC IFNγ induction (24 h, with IL-12): EC50, donor 5 [4]: 1.9; PBMC IFNγ induction (24 h, with IL-12): EC50, donor 6 [4]: 29.4; PBMC: calculated maximum induction of IFNγ after 24 hours, donor 1 [4]: 42000; PBMC: calculated maximum induction of IFNγ after 24 hours, donor 2 [4]: 5300; PBMC: calculated maximum induction of IFNγ after 24 hours, donor 3 [4]: 89000; PBMC: calculated maximum induction of IFNγ after 24 hours, donor 4 [4]: 69000; PBMC: calculated maximum induction of IFNγ after 24 hours, donor 5 [4]: 150000; PBMC: calculated maximum induction of IFNγ after 24 hours, donor 6 [4]: 28000; HEK-Blue IL-18: Abs 405 at 100 nM [5]: 2.6 Abs; HEK-Blue IL-18: Fold over background [5]: 14.4 fold; HEK-Blue IL-18: Abs 405 at 100 nM [6]: 3 Abs; HEK-Blue IL-18: Fold over background [6]: 13.2 fold
